# Assay results published in the DeepSol protein solubility set.
# Assay: soluble on expression in E. coli; label from the status in PepcDB or PDB records
row,Sequence,soluble on expression in E. coli
1,GNIATTPGDVVYRNRMMELIQYKPATDTVHEIPIVLFPPWINKFYILDLKAQNSFIKWVTEQGFTIFVVSWINPDASYADVGMEDYIQDGFLTAIDEVKKICKVKQVNAVGYCIAGTTLSLTLSLMKQTGDKSVKSATFFTALTDFSDQGEFTPFLQDDFIDGIEEEVTREGVLRSWIMARTFSYLRSNDLIYKPAIQSYMLGETPPAFDLLYWNGDGANLPAKMAVQYLRGLCQRNEFAGEGFDLMGHTLHVRDVDVPVMAITCETDHIAAWKDCYRGVQKMGSRSKTFVVSESGHIAGIVNPPSKKKYGHYTNPDLKDD,not soluble
2,MPGTKRFQHVIETPEPGKWELSGYEAAVPITEKSNPLTQDLDKADAENIVRLLGQCDAEIFQEEGQALSTYQRLYSESILTTMVQVAGKVQEVLKEPDGGLVVLSGGGTSGRMAFLMSVSFNQLMKGLGQKPLYTYLIAGGDRSVVASREGTEDSALHGIEELKKVAAGKKRVIVIGISVGLSAPFVAGQMDCCMNNTAVFLPVLVGFNPVSMARNDPIEDWSSTFRQVAERMQKMQEKQKAFVLNPAIGPEGLSGSSRMKGGSATKILLETLLLAAHKTVDQGIAASQRCLLEILRTFERAHQVTYSQSPKIATLMKSVSTSLEKKGHVYLVGWQTLGIIAIMDGVECIHTFGADFRDVRGFLIGDHSDMFNQKAELTNQGPQFTFSQEDFLTSILPSLTEIDTVVFIFTLDDNLTEVQTIVEQVKEKTNHIQALAHSTVGQTLPIPLKKLFPSIISITWPLLFFEYEGNFIQKFQRELSTKWVLNTVSTGAHVLLGKILQNHMLDLRISNSKLFWRALAMLQRFSGQSKARCIESLLRAIHFPQPLSDDIRAAPISCHVQVAHEKEQVIPIALLSLLFRCSITEAQAHLAAAPSVCEAVRSALAGPGQKRTADPLEILEPDVQ,soluble
3,MTGMRKTLKATLAEARAQVEAALKEEGFGILTEIDVAATLKAKLGLEKPPYLILGACNPNLAARALEALPEIGLLLPCNVVLREAEEGVEVLIQDPKEMFRVLPEATQRALAPVAEEARTRLSRALSRL,soluble
4,MAHHHHHHMTSVLAVVNARRVWRGASVLQPAVSSSYPPEVDALLVEGGRISFIGSTAEVQQRYGALVAAQPVDAAAAAPQPVEGGRPRTVSHRVIDCEHRHAVYPGFIDSHVHFLDGGRMLLAPQLGFATSRTQFTAIVRDFVEHRYNREEGGWVYGVGWSEAVLGCSPTREWLDEVSTKIHLVMYSKDIHSAVMNTAALRSCHIIPGAEDGEPLITSVEGGVIELNENGQPSGVLRDNAIQLAKRYAPAADTPANQRRALEAATEHLLSLGFTSVFSMMSTTYMDNVSEINFLAQMEREGAMRLRVRYGVPLSDVERLMDKFYRVMATDAAQSGRSDDFTLPYRFTMTPPAAGGGYLLLGAVKLFADGSLSSRTAAMNRPYGYNVTTEGDIDSDLDDAAISALLKERSGKQCQCGLLTMSRLELQCAIRVAHSHDLQCVVHAIGDRAVATVNRALCASADWLRERGAEAGVVAAVARFRADPRSRVEHCQHMSSMTKEVKRMAQYGIIASMQPCHLLFDGDYVDTLLGQRRKDTSYMWGTLLAAKIRVDLGSDWPVAPADVNDGLRGAVTRVPDVMTALAAEEAQYRSQQQAQPSADNTAACAATALRRYHDTWNPAECISMDAALRTYTYEGAHGMFMENYLGTLEVGKYADITVWTADWLDDAEMEQMAGVEGANARWWPRHREPHVAYTIVGGVVEYDRSH,not soluble
5,MKTTEFTMPEITISYKDNVKASERVKILSSETSYTYLKPFYAECMEHHEESYVMFLNRANKALGISLISKGGMAETVMDVKIILQTALKVHASGIVLSHNHPSGNLRPSEPDKKITTKINEACKVLDLHLLDHIILTEESYYSFADEGLL,not soluble
6,CIIDKVTAVRRLNVLTLNVHKGFTFFNRRFILPELREAVRATGADLVFLQEVHGSHQQHALRHPAWPETPQYEFLADSMWPQFAYGRNAVYPHGDHGNALLSKFPIRRFNNLDVSVQGNEQRGLLHCQLEVPGHDEVHAVCVHLGLREAHRQRQVKLMLDLLASLPPNAPVIIAGDFNDWRLKADAVLSEHLTEAFGTPARSFPARLPLLRLDRIYLRNAVPGAAQVLSKYPWSHLSDHVPLAAEINL,not soluble
7,GALKRAEELKTQANDYFKAKDYENAIKFYSQAIELNPSNAIYYGNRSLAYLRTECYGYALGDATRAIELDKKYIKGYYRRAASNMALGKFRAALRDYETVVKVKPHDKDAKMKYQECNKIVKQKAFERAIAGDEHKRSVVDSLDIESMTIEDEYSGPKLEDGKVTISFMKELMQWYKDQKKLHRKCAYQILVQVKEVLSKLSTLVETTLKETEKITVCGDTHGQFYDLLNIFELNGLPSETNPYIFNGDFVDRGSFSVEVILTLFGFKLLYPDHFHLLRGNHETDNMNQIYGFEGEVKAKYTAQMYELFSEVFEWLPLAQCINGKVLIMHGGLFSEDGVTLDDIRKIERNRQPPDSGPMCDLLWSDPQPQNGRSISKRGVSCQFGPDVTKAFLEENNLDYIIRSHEVKAEGYEVAHGGRCVTVFSAPNYCDQMGNKASYIHLQGSDLRPQFHQFTAVPHPNVKPMAYANTLLQLGMM,soluble
8,SARLADYFIVVGYDHEKPGSGEGLGKIIQRFPQKDWDDTPFPQGIELFCQPGGWQLSRERKQPTFFVVVLTDIDSDRHYCSCLTFYEAEINLQGTKKEEIEGEAKVSGLIQPAEVFAPKSLVLVSRLYYPEIFRACLGLIYTVYVDSLNVSLESLIANLCACLVPAAGGSQKLFSLGAGDRQLIQTPLHDSLPITGTSVALLFQQLGTVAHACNLSTLGGRGGQLTRSGDRDHPG,soluble
9,SNTGPYYFVKNLPLHELITPEFISTFIKKGKLILSLDKDTYEETGLQGHPSQFSGRKIMKFIVSIDLMELSLNLDSKKYERISWSFKEKKPLKFDFLLAWHKTGSEESTMMSYFSKYQIQEHQPKVALSTLRDLQCPVLQSSELEGTPEVSCRALELFDWLGAVFSNVDLNNEPNNFISTYCCPEPSTVVAKAYLCTITGFILPEKICLLLEHLCHYFDEPKLAPWVTLSVQGFADSPVSWEKK,soluble
10,MGSDKIHHHHHHMRDMCSISGIIVKDNQISAKYSIDMMKILKHRGRDNSGLLLDDEVIYFNDFEDVEDLEEEMIGNLSLAHNRLAIVGRYGVQPIPNEDETIWLVCNGEIYNYIELREYLKQNHEFRTDSDNEVIIHLYEEEKLEELDGDYAFAIYDKSKNVVRLARDMFGVKPLFYVDRDKYFAFASERKALWHLLINIDGCERDLDELNSKIKTLKPNSQLIYYLDDNRFEIIEGFKKLELNYMKERSYEEAKEYLDRALKNSVLKRVRGLDKVGIICSGGVDSSLIAKLASLYCEVILYAVGTENSEDLIYAERLAKDLNLKLRKKIISEEEYEEYVFKVAKAIDEVDLMKIGVGIPIYVASEMANEDGLKVVLSGQGADELFGGYARHERIYRERGEEELKKELLKDVYNLYKVNLERDDHCTMANGVELRVPFLDEEVVEIALSIPIEYKMSELSNRPYAESNISLKSEPINGLKNTNLNIKCVRSVRKKILRDVASQYLPDYIAYRPKKAAQYGSGGEKMIYKVAKKYGFSKKRINEFLDMLKRKIVSEF,not soluble
11,MSDAHVLKSRLEWGEPAFTILDVRDRSTYNDGHIMGAMAMPIEDLVDRASSSLEKSRDIYVYGAGDEQTSQAVNLLRSAGFEHVSELKGGLAAWKAIGGPTEGIIESRLEHHHHHH,not soluble
12,VVELDETPVRTLLARQGIYDKNSAIVAYELLYRNSDAENSHVDNLNQSSGEAATSSVLVQLFANLDVNTIIGNKQAFINFTHSHLVQKIPMLLPKNRIVIEVLETVAIDQPLLLNLMELKKQGYQIALDDFVFRNELAPLVDMADIIKIDVLHLDQQQIAEQLLPLKSFRGKLLAEKIEDKQQFNHCVNLGFDFFQGFFLNKP,not soluble
13,MLVKPPYSYIALITMAIQNAPEKKITLNGIYQFIMDRFPFYRENKQGWQNSIRHNLSLNECFVKVPRDDKKPGKGSYWTLDPDSYNMFENGSFL,soluble
14,MCSLNELITGIKELPEPDLTASRLMDAAADYVPLKLRGHIDAKDINSSPKTLENGGTEFFQALIDITHPRLRLYGSGKELAENVRIHRNFPTSHRSPIIYKSLDNNQYIYKTDVFIIIQNICGYRKDSTNNIIELNRFLEVMYLKAREETSRKYLEFVRFDADSFRKIEKKFEKFNQGACFVDRSLEQRNSNGDHLPIVQELDSMKSIEFIQHPIQRAKHKAVPIEDLKPGSYCILAVDALFELFNEIIWGSRVFEKHKVPKIIEYVLKIPTLLFKSELRFPHFIKTAHLHRLLASFEVSLSSFHFPANPVKEVRNAKADHGFTLQNLKNELTYLGLTETFPDITDYAEIAYNEVMRVKKEMLLRTCDLFDAIEHCQLLCIFNRSPFLKQFLHNQKACHRLVGLHCDLCIKEKVEKSENQEAWDLDESSSTKSPIDCKKCSQTLQTIEDVKKELKTSQNKENKMRKKVSELEKKLDVENVQNEQEVKEMEDDLRGKQEELNILRNDSLKVHDVLMEIADLKQKHSKLEKHVEGLKEENLKQERNYNLTQSNLEANLSSMREGLTILQQYTEELEQERQKYQEMLTARSEETSVQAEPAGGEEEMLDVTKQIEEAKEEKIRLKAEHDANERIIQQLLDKLANFS,not soluble
15,MLKHDLDYLELLSESFPTATEAATEIINLEAILNLPKGTEHFLADIHGEYEAFIHVLKNASGSIRRKVDEVFGGQLRQNQKRELCTLIYYPREKLELVKQSDERMEDWYMVTLNQLIKVCQKAAEKYTRSKVRKTLPPKYSYIIQELLHEDGVNPNKSAYISSIFSSIISTGCADDFIIAISETIQRLVIDHLHVVGDVFDRGPGAHIIMDTLMKYHHFDIQWGNHDMLWMGAAVGNASCMANVVRIALRYANLDTLESGYGINLLPLARFAMDTYADDPCTVFKPKLAQADQTYDDKSVYLISQMHKAISIIQFKLEHQIIARHPEYKMDNRDLFHLVNFTDGTIKLSSGVYPMLDMNFPTVDPADPYALTEQEQNIVDRLMGCFMRSEKLQNHLKCLYRHGSMYLTYNMNLLYHASIPLNKDKSLKKVRVGDKTYAGRELLDKVEEMIRTAYVAPEKSDQRLAAVDYMWYLWCGPDSPLFDKAMMTTFERYFIEDKATHHEEKGYYYVYRQEKAVCEMILKEFGLEGPDTHIINGHVPVKAKKGELPIGAEGKLMLIDGGFSKAYQSSTGIAGYTLIFNSQGLHLVQHEPFSSTRKAIEEMEDIKSITVVREVTSHRMLVKDTDNGHLLSKQVENLKKLLQAYSYGLIKERKK,not soluble
16,MSLAMALFQSAPHSLCILRLSAIGDVCNTIAAVQAIQRQWPQTRITWVTGKLEAELIQSLPDIQVIVFDKKLGWRAYTQLWQQLKSERFDALLHMQYAFRASIATLGIKARYKLGFDAARSQDFQTWFTNVKVPSPDKMHVLDGLLAFVEHLGIRDIEPKWSLTCQPDDLTWAEAQFQPEQPRLVVVPGASKAYKNWTAEGYAAVIEHAQQQGWQVILAGSPAQVERDLAAQVEQALAHPVLNLVGKSTLQQMLALLAKADLVIAPDTGPAHMANAMHTPIIGLYAHHNPERTGPYHYRHYVVSAYQEALLAETGKMPQQVDWRTRVKDPNAMQRITAQQVIAMFERAAADIMATQVNDEGHHHHHH,soluble
17,MHIEFRHLRTIKAIHDCGGLARAADQLNITQSALSHQIKGLEDQAGVELFVRRSKPMKLSAAGMRLLRLAEQILPQVEAMQAEFSSLRDGRSGRMHIAIECHACFEWLFPVLEAFRKNWPDVDVDIRPGLAFDALPALQKEEVDLVVSSDPEEIAGVEFVELFDYNAVFVAASTHPLAAKPWVEAEDFRGETLITYPVERTRLDVFSQLLIPARVEPAQVRQVELTAVILLLVASNRGVSVLPDWVVREVKYSSDYVTRPLTETGITRRLYAAVRSEDLEKPFVQELVTLARSEARKLQSR,not soluble
18,MYTNSDFVVIKALEDGVNVIGLTRGADTRFHHSEKLDKGEVLIAQFTEHTSAIKVRGKAYIQTRHGVIESEGKKAAAAAAA,soluble
